Consider 3 sequences from patent publication US20190375786A1, “STABLE PEPTIDES AND METHODS OF USE THEREOF” (Fred Hutchinson Cancer Research Center, priority 2016, published 2019).

The nature of data set [1]: Stability in simulated gastric fluid (SGF, pH 1.05), RP-HPLC. It is filed as physicochemical. To be noted: HPLC vs non-reduced peptide. As to the method: (§1) Peptides were first suspended in 500 ul of ddH2O to a stock concentration of 2 mg/ml. Reactions were prepared by adding 12.5 ug of peptide from the stock solution to a 10 mM solution of DTT in PBS and allowed to incubate at room temperature for 30 minutes. Other reactions were prepared with 12.5 μg peptide with or without 500 U/ml pepsin in simulated gastric fluid (SGF; pH 1.05; […] sodium chloride in 0.7% (v/v) hydrochloric acid) and were incubated for 30 minutes at 37.5° C. Some reactions were quenched with a final concentration of 100 mM Tris base and 10 mM dithiothreitol (DTT). Some reactions were performed in all of the above components, including simulated gastric fluid, pepsin, Tris, and DTT (referred to as SPTD). Reversed phase HPLC (RP-HPLC) was run on samples using an Agilent 1260 HPLC equipped with a C-18 Poroshell 120B column. Sample were analyzed by a gradient method with a mobile phase of Solvent A (water with 0.1% TFA) and Solvent B (acetonitrile with 0.1% TFA). Solvent B was ramped up from 5%-45% of the mobile phase over a period of 10 minutes. Peptides were detected at an absorbance of 214 nm and 280 nm.
This example illustrates peptide stability in biological conditions including in the presence of reducing agents, proteases, oxidative conditions, acidic conditions, and simulated gastric fluids. […] Various peptides were suspended in 500 μl of ddH2O at a stock concentration of 2 mg/ml. This was then diluted in accord with the reaction conditions to prevent adverse buffering effects. Reactions were prepared with 12.5 μg peptide dissolved in solution and, in some samples, additionally suspended in a 10 mM solution of DTT, simulated gastric fluid (pH 1.05; […] sodium chloride in 0.7% (v/v) hydrochloric acid), 500 U pepsin (5000 U/ml pepsin), 50 U trypsin (500 U/ml trypsin) with 1 mg/ml inhibitor in PBS, or a combination of any of these conditions. All protease reactions were incubated for 30 min at room temperature and then quenched. Pepsin reactions were quenched by adding Tris base to a final concentration of 0.075 M. Trypsin reactions were quenched by adding excess soybean trypsin inhibitor. RP-HPLC was then run on samples using an Agilent 1260 HPLC equipped with a C-18 Poroshell 120B column. Sample were analyzed by a gradient method with a mobile phase of Solvent A (water with 0.1% TFA) and Solvent B (acetonitrile with 0.1% TFA). Solvent B was ramped up from 5%-45% of the mobile phase over a period of 10 minutes.

Data set [2] in a line: Resistance to reduction by DTT, RP-HPLC. The class given is physicochemical. To be noted: 10 mM DTT; HPLC vs non-reduced peptide. The method, boiled down:
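Peptide (12.5 μg from a 2 mg/ml stock, or 0.015 mM final in PBS) was held 30 min at room temperature with or without 10 mM DTT. Reduced and non-reduced forms were compared by C-18 RP-HPLC using a 5–45% acetonitrile/0.1% TFA gradient over 10 min, with detection at 214 and 280 nm.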

The target of data set [3] is T1, pepsin (Sus scrofa, UniProt P00791). The data set is described as follows: Pepsin digestion resistance in simulated gastric fluid, RP-HPLC. It is filed as in vitro ADME, porcine. Also noted: purchased Sigma Aldrich P7012. To be noted: HPLC. The method, boiled down:
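Peptide (12.5 μg) incubated 30 min at 37.5 °C with or without 500 U/ml pepsin in simulated gastric fluid (pH 1.05; 2% NaCl in 0.7% HCl); some reactions quenched with 100 mM Tris and 10 mM DTT. Intact peptide followed by C-18 RP-HPLC (5–45% acetonitrile/0.1% TFA over 10 min) at 214 and 280 nm.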

Data set [4] has as its target T2, trypsin (Sus scrofa, UniProt P00761). The data set is described as follows: Trypsin digestion resistance of soluble peptide, RP-HPLC. It is filed as in vitro ADME, porcine. Also noted: purchased Sigma Aldrich 6567. To be noted: 50 U trypsin (500 U/ml), 30 min at room temperature, with or without 10 mM DTT; HPLC. The method, boiled down:
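12.5 μg soluble peptide digested with 500 U/ml porcine trypsin in PBS, 30 min at 37.5° C; quenched with soybean trypsin inhibitor, with or without 10 mM DTT reduction afterwards. Intact peptide assessed by C-18 RP-HPLC, 5-45% acetonitrile/0.1% TFA gradient over 10 min.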

The target in data set [5] is T1, pepsin. The data set is described as follows: Stability in SPTD (simulated gastric fluid, pepsin, Tris and DTT), RP-HPLC. The class given is in vitro ADME. To be noted: SGF pH 1.05 with 500 U/ml pepsin, 100 mM Tris, 10 mM DTT. As to the method: as §1
Data set [6] is described as follows: Circular dichroism in neutral, SDS and acidic buffers. It is filed as physicochemical. As to the method: CD spectra were measured with a Jasco J-720W spectropolarimeter using a 1.0 mm path length cell. Lyophilized peptide samples were resuspended in ultra pure water. CD runs were carried out by diluting peptides in 20 mM phosphate buffer saline (pH 7.4), 20 mM phosphate buffer saline (pH 7.4) supplemented with 1% sodium dodecyl sulfate (SDS), or phosphate buffer saline at pH 4. Peptides were diluted to 15-25 μM in concentration. Data are shown in terms of total molar ellipticity [θ]; (deg cm^2 dmol^−1).
A general note: Circular dichroism is the unequal absorption of left and right circularly polarised light.

A short description of data set [7]: Combined resistance grouping of hitchin peptides (FIG. 27, from Table 2 data). It is filed as physicochemical. To be noted: FIG. 27 grouping of hitchin peptides. Here is the method:
As shown by the data in TABLE 2, the tested peptides of the present disclosure show a range of resistance to proteases, reduction, and high temperature. The peptides were classified as high, medium, or low for each condition. […] For example, after a peptide is treated at 100° C., if the HPLC peak of the peptide is mostly absent as compared to HPLC peak of the peptide not treated at 100° C., then the peptide is classified as low or having low resistance to 100° C. After a peptide is treated with reducing conditions, if there is no or very minimal HPLC peak that overlaps with the HPLC peak of the peptide not treated with reducing conditions, then the peptide is classified as low or having low resistance to reducing conditions.
The peptides with the highest resistance data were further analyzed. […] The six peptides that were further tested were peptides comprising the sequences of SEQ ID NO: 27, SEQ ID NO: 24, SEQ ID NO: 6, SEQ ID NO: 10, SEQ ID NO: 12, and SEQ ID NO: 57, which were all hitchins. […] FIG. 27C is a sequence analysis of SEQ ID NO: 27, SEQ ID NO: 24, SEQ ID NO: 6, SEQ ID NO: 10, SEQ ID NO: 12, and SEQ ID NO: 57 from FIG. 27B. FIG. 27C identifies which amino acids are present at each position in SEQ ID NO: 27, SEQ ID NO: 24, SEQ ID NO: 6, SEQ ID NO: 10, SEQ ID NO: 12, and SEQ ID NO: 57. For example, at position one, all peptide sequences comprise a G amino acid residue; at position two, all peptide sequences comprise an S amino acid residue; at position three, all peptide sequences comprise either G, Q, or V amino acid, or null; and at position four, all peptide sequences comprise V, R, or K amino acid, or null. […] SEQ ID NO: 167 and SEQ ID NO: 168 describe sequences of peptides that are particularly resistant to reduction, pepsin, 75° C., and 100° C., which would typically degrade peptides. […] Additionally, SEQ ID NO: 169 describes sequences of peptides that are also particularly resistant to trypsin.

Data set [8] has as its target T2, trypsin. Nature of the data set: SDPR surface display protease resistance, anti-6xHis staining, trypsin. It is filed as cell-based. To be noted: HEK-293 cells, up to 40 μg/ml trypsin for 20 minutes. Here is the method:
(§2) Soluble peptides were exposed to 500 U/mL porcine trypsin and analyzed by HPLC. Protease resistance was also assessed by using SDPR-displaying peptides. The SDPR vector is similar to the a surface display GFP FasL(SDGF) vector, but contains a C-terminal 6×His tag (SEQ ID NO: 180) and all basic or aromatic amino acid residues on the stalk removed. Protease resistance is then tested by incubation of cells displaying peptides with trypsin or chymotrypsin, followed by incubation in 10 mM DTT, and staining with an anti-6×His fluorophore-labeled antibody (“6×His” disclosed as SEQ ID NO: 180). If peptides are uncleaved, they retain the His tag and are stained with by the antibody. A control protease-sensitive knottin peptide (SK) was used as a positive control. Cells displaying peptides were treated with up to 40 μg/ml trypsin or chymotrypsin.
(§3) To determine the impact of protease treatment or reducing condition on the function of the peptides, i.e., binding activity, various binding or functional assays can be performed. […] After treatment with the protease and reducing agent, any linearized peptide product or degradation product resulting from reduction and/or proteolysis by treatment with a protease can be detected or analyzed by staining against the 6×His tag (SEQ ID NO: 180). […]

The test system of a further data set is chymotrypsin. The data set is described as follows: SDPR surface display protease resistance, anti-6xHis staining, chymotrypsin. It is filed as cell-based. To be noted: HEK-293 cells, up to 40 μg/ml chymotrypsin for 20 minutes. Here is the method: as §2, §3
Data set [9] in a line: Resistance to reduction by reduced glutathione (GSH), HPLC. The class given is physicochemical. To be noted: 10 mM reduced glutathione (GSH); HPLC vs non-reduced peptide. As to the method: This example describes stability of designed or engineered peptides under reducing conditions. Peptides that are designed or engineered to interact with one or more target proteins in the cell, such as proteins in the nucleus, are exposed to reducing conditions in the cytosolic compartment of cells. Thus, it is advantageous for peptides of this disclosure to display stability in reducing conditions. Stability of peptides of this disclosure was tested in 10 mM DTT and 10 mM GSH. GSH is a more physiologically relevant reducing agent for testing peptide stability in intracellular conditions. An example of a peptide-target protein interaction is a peptide binding to a TEAD protein.

Entries after “also recorded” stand apart in the source; their conditions may differ.

T2 sequence (P00761 9-231): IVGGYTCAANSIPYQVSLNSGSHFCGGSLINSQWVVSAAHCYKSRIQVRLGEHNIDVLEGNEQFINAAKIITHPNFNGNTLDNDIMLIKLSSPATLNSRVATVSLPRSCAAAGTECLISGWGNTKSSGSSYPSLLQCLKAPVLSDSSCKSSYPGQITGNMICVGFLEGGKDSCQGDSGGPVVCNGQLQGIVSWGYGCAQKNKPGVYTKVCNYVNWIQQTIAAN
T1 sequence (P00791 60-385): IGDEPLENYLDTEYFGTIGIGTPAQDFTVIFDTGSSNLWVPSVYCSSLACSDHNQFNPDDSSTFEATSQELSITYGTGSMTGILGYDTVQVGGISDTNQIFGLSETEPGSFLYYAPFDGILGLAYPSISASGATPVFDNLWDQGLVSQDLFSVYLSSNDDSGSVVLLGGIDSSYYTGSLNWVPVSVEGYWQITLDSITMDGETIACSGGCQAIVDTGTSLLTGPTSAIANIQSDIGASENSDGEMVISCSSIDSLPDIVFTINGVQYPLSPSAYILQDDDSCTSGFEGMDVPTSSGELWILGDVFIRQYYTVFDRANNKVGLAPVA

For the sequence “GSGVPINVRCRGSRDCLDPCRRAGMRFGRCINSRCHCTP [SEQ ID NO: 31]”, in [1], the “stability in simulated gastric fluid / low pH (in words)” value was “highly resistant; also recorded: remained intact; also recorded: intact and resistant”. Moreover, the “resistance to reduction by DTT (in words)” value in data set [2] was “highly resistant; also recorded: remained intact; also recorded: intact and resistant”. At pepsin [3] (500 U pepsin (5000 U/ml) in SGF, 30 min at room temperature, with or without DTT), the “resistance to pepsin, Example 7 conditions (in words)” value is listed as “remained intact; also recorded: resistant”. Further, on pepsin [3] (500 U/ml pepsin (50 U per reaction) in SGF, 30 minutes at 37.5° C.), the “resistance to pepsin digestion (in words)” value is “highly resistant”. Besides, the “resistance to trypsin, Example 7 conditions (in words)” value at trypsin [4] is “remained intact; also recorded: resistant”. In addition, the “resistance in SPTD (SGF, pepsin, Tris, DTT) (in words)” value at pepsin [5] was “highly resistant”.

Turning to “GSVFINVKCRGSPECLPKCKEAIGKSAGKCMNGKCKCYP [SEQ ID NO: 37]”, the “secondary structure by CD in phosphate buffer saline at pH 4” value in data set [6] (pH 4) is on record as “retained its secondary structure”. The “secondary structure by CD in phosphate buffer saline at pH 7.2” value in data set [6] (pH 7.2) is given as “retained its secondary structure”. Further, the “secondary structure by CD in phosphate buffer saline at pH 7.2 with 1% SDS” value in data set [6] (pH 7.2, 1% sodium dodecyl sulfate) was “lost secondary structure”. Besides, in data set [7], the “combined resistance to reduction, pepsin and elevated temperatures such as 75° C. and 100° C.” value is listed as “not highly resistant”.

For the sequence “PDEYIERAKECCKKQDIQCCLRIFDESKDPNVMLICLFCW [SEQ ID NO: 126]”, the “resistance of surface-displayed peptide to cleavage by trypsin” value in the data set with trypsin [8] is recorded as “partially resistant”. In the data set with chymotrypsin, the “resistance of surface-displayed peptide to cleavage by chymotrypsin” value was “partially resistant”. Also, the “resistance to GSH reducing conditions” value in data set [9] is on record as “resistant”.
